Assay results published in the nanobody polyreactivity screen of Harvey et al. (2022).

Experiment: yeast display, Sf9 membrane polyspecificity reagent, FACS + sequencing; frameworks hold sequencing errors
In short: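 Synthetic nanobody libraries on Saccharomyces cerevisiae BJ5465 were galactose-induced for 36–48 hours, stained 1 hour at 4 °C with 10% biotinylated, detergent-solubilized Sf9 membrane reagent and enriched on streptavidin microbeads. FACS then separated cells into low and high (top ~1%) gates by anti-HA (expression) and streptavidin (reagent binding) fluorescence. Genes were colony-PCR amplified, MiSeq 2 × 250 sequenced and CDR-length filtered. A clone's polyreactivity label is that of its gate of origin.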

| Sequence | polyreactivity (PSR sort gate) |
| --- | --- |
| QVQLVESGGGLVQAGGSLRLSCAASGRIFNVYAMGWYRQAPGKERELVASINSAGSTYYADSVKGRFTISRDNAKNTVYLQMNSLKPEDTAVYYCAADSYSVYYYTYDSWGQGTQVTVSS | low polyreactivity |
| QVQLVESGGGLVHAGGSLRLSCAASGSTFNRYAMGWYRQAHGKERELVASISWGGGRTYYADSVKGRFTISRDNEKNTVYLLMNSLKPEDTAVYYCATDRYYRHYEVDYWGQGTQVTVSS | low polyreactivity |
| QVQLVESGGGLVQAGGSLRLSCAASGSIFYRNAMGWYRQAPGKERELVAAITWSGVNTYYADSVKGRFTISRDNAKNTVYLQMNSLKPEDTAVYYCAVPSRYWLNRGFDYWGQGTQVTVSS | low polyreactivity |
| QVQLVESGGGLVQAGGSLRLSCAASGRTLGGYAMGWYIQATGKERELVAAITRRGGSTYYADSVKGRFTISRDNAKNTVYLQMNSLKPEDTAVYYCAARWYARSLTRFNYWGQGTQVTVSS | high polyreactivity |
| QVQLVESGGGLVQAGGSLRLSCAASGIIFSVYAMGWYRQAPGKERELVAAITRSGSRTYYADSVKGRFTISRDNAKNTVYLQMNSLKPEDTAVYYCNAVPRVTRPSAVEEYDYWGQGTQVTVSS | high polyreactivity |
| QVQLVESGGGLVQAGGSLRLSCAASGFIFRYYAMGWYRQAPGKERELVAAISGSGGGTYYADSVKGRFTISRDNAKNTVYLQMNSLKPEDTAVYYCAAGSTSGYFRYYYWGQGTQVTVSS | high polyreactivity |
| QVQLVESGGGLVQAGGSLRLSCAASGSTFGVYAMVWYRQAPGKERELVAAINYSGRTYYADSVKGRFTISRDNAKNTVYLQMNSLKPEDTAVYYCAARIIVDDVGTKYYYWGQGTQVTVSS | high polyreactivity |
| QVQLVESGGGLVQAGGSLRLSCAASGFIFGSYAMGWYRQAPGKERELVAAITSSGITYYADSVKGRFTISRDNAKNTVYLQMNSLKPEDTAVYYCAAEGSTYQGAPGVYYWGQGTQVTVSS | high polyreactivity |
| QVQLVESGGGLVQAGGSLRLSCAASGFTFRAYVMGWSRQAPGKERELVAAISRSGGSTYYADSVKGRLTISRDNAKNTVYLQMNSLKPEDTAVYYCAAGVPGPRVKIQARFDYWGQGTQVTVSS | high polyreactivity |
| QDQLVESGGGLVQAGGSLRLSCAASVSIFWSYAMGRSRQAPGKEMELVASITRSGGSTYYADSVKGRFTISRDNAKNTVYLQMNSLKPEDTAVYYCNARRTTRWGSSKYEYDYCGQGTQVTVSS | high polyreactivity |
| QVQLVESGGGLVQAGGSLRLSCAASGISFLDNALGWYRQATGKERELVAAYADSVKGRFTISRDNAKNTVYLQMNSLKPEDTAVYYCNAGWIRNYGFSLVTYDYWGQGTQVTVSS | low polyreactivity |
| QVQLVESGGGLVQAGGSLRLSCAASGFTFANPMGWYRQAPGKERELVAAISSGGGSTYYADSVKGRFTISRDNAKNTVYLQMNSLKPEDTAVYYCAAGYGTLDWWEDYWGQGTQVTVSS | high polyreactivity |
| QVQLVESGGGLVQAGGSLRLSCAASGFTFLYYDMGWYRQAPGKERELVAAITNDDSTYYADSVKGRFTISRDNAKNTVYLQMNSLKPEDTAVYYCAADSVYGSDEYWGQGTQVTVSS | high polyreactivity |
| QVQLVETGGGLVQAGGSLRLSCAASGFTILGYDMGWYRQAHGKERELVAAFDYSGGSTYYADSVKGRFTISRDNAQNTVYLQMNSLKPEDTAVYYCAAYTGKGRAYFRWMDYWGQGTQVTVSS | high polyreactivity |
| QVQLVESGGGLVQAGGSLRLSCAASGRIFSLYAMGWYRQAPGKERELVAAISKRGGSTYYADSVKGRFTISRDNAKNTVYLQMNSLKPEDTAVYYCATQLPFRKPWHDYWGQGTQVTVSS | high polyreactivity |
| QVQLVESGGGLVQAGGSLRLSCAASGFIFWYYAMGWSRQAPGKERELVAAISKSGGRTYYADSVKGRFTISRDNAKNTVYLQMNSLKPEDTAVYYCARRAYLSYGYWSDYWGQGTQVTVSS | high polyreactivity |
| QVQLVESGGGLVQAGGSLRLSCAASGNTFWQYAMGWYRQAPGKERELVAAITRSTGSTYYADSVKGRFTISRDNAKNTVYLQMNSLKPEDTAVYYCAADFYRHYFRVDSWGQGTQVTVSS | low polyreactivity |
| QVQLVESGGGLVQAGGSLRLSCAASGRTFRPYAMGWYRQAPGKERELVAAISSRGSSTYYADSVKGRFTISRDNAKNNVYLQMNSLKPEDTAVYYCAARSYWGGLRYDYWGQGTQVTVSS | high polyreactivity |
| QVQLVESGGGLVQAGGSLRLSCAASGIIFTYYAMGWYRQAPGKERELVAAISDSGGGTYYADSVKGRFTISRDNAKNTVYLQMNSLKPEDTAVYYCAASGAWWDDYWGQGTQVTVSS | high polyreactivity |
| QVQLVESGGGLVQAGGSLRLSCAASGSTFARYAMGWYRQAPGKERELVAAISRRGGSTYYADSVKGRFTISRDNAKNTVYLQMNSLKPEDTAVYYCAARYGIISSFEYDYWGQGTQVTVSS | high polyreactivity |
| QAQLQESGGSLVQAGGGMRLSCAASGYISVGSVMGWYRQAPSKERELVASIDQGANTNYADSVKGRFTISRDNAKNNVYLQMNSLKPEDTAVYYCATETTYILNYWGQGTQVTVSS | low polyreactivity |
| QVQLVESGGGLVQAGVSLRLSCAASGNIFRAYAMGWYRQAPGKERELVAAIDTTGGRTYYADSVKGRFTISRDNAKITVYLLMKSLKPEDTAVYYCAVRAPAYPYYRGFDYWGQGSQVTVSS | low polyreactivity |

| Sequence | polyreactivity (PSR sort gate) |
| --- | --- |
| QVQLVESGGGLVQGGGSLRLTCAASGSIFHYYAMGWYRQAPGKERELVAAINSSGGSRTYYADSVKGRFTISRDNAKNTVYLQMNSLKPEDTAVYYCAADYRVVWRAYDYWGQGTQVTVSS | low polyreactivity |
| QVQLVESGGGLVQAGGSLRLSCAASGSTFAGYAMGWYRQAPGKERELVAAISKRGTSTYYADSVKGRFTISRDNAKNTVYLQMNSLKPEDTAVYYCAARTYASYFKLYYWGQGTQVTVSS | high polyreactivity |
| QVQLVESGGGLVQAGGSLRLSCAASGRTFWFNDMGWYRQAPGKERELVAAISDTDGSTYYADSVKGLFTISRDNAKNTVYLQMNSLKPEDTAVYYCAAEAYYGYLYAYDYWGQGTQVTVSS | low polyreactivity |
| QVQLVESGGGLVQAGGSLRLSCAASGRTFLWYAMGWYRQAPGKERELVAAITTAGSTYYADSVKGLFTISRDNAKNTVYLLMNSLKPEDTAVYYCNRLTYAYPPPVLGVGHDSWGQGTQVTVSS | low polyreactivity |
| QVQLVESGGGLVQAGGSLRLICAASGIIFRSYAMGWYRQAPGKERELVAGISLSGGSTYYADSVKGRFTISRDNAKNTVYLQMNSLKPEDTAVYYCAARRRYKSGYWGQGTQVTVSS | high polyreactivity |
| QVQLVESGGGLVQAGGSLRLSCADSGSTFGFYAMGWYRKAPGKERELVAAISSSGSTYYADSVKGRFTISRDNAKNTVYLQMNILKPEDTAFYSCGAHPGYYDYDYWGQGTQVTVSS | low polyreactivity |
| QVQLVESGGGLVQAGGSLRLSCAASGGTFLYYMGWYRQAPGKERELVAAITFSGGSTYYADSVKGRFTISRDNAKNTVYLQMNSLKPEDTAVYYCAAGWYDWPKYLLSVYTYYLYDSWGQGTQVTVSS | low polyreactivity |
| QVQLVESGGGLVQAGGSLRLSCAASGRIFRYNAMGWYRQAPGKEREFVAAISWSGDRTYYADSVKGRFTISRDNAKNTGYLQMNSLKTEDTAVYYCADVPATSYPRRYVYAYYYWGQGTQVTVSS | high polyreactivity |
| QVQLVESGGCLVQAGGSLRLSCAASGITFRSYTMGWYRQAPGQESELVAAISYSAGSTYYADSVKGRFTISRDNAKNTVYLQMNSLKPEDTAVYYCAARPRLVVLVIRFYYWGQGTQVTVSS | high polyreactivity |
| QVQLVESGGGLVQAGGSLRLSCAASGSIFGINTMRWYRQAPGKEREFVASIRFNDGDTYYADSVKGRFTISRDNAKNTVYFQMNSLKPEDTAVYYFNVQTYVELRLDYWGQGTHVTVSS | low polyreactivity |
| QVQLVESGGGLVQAGGSLRLSCAASGSLFYSNTMGWYRQAPGKERELVAAISRGGSTYYADSVKGRFTISRDNAKNTVYLQMNSLKPEDTAVYYCAARYRWAPAYDYWGQGTQVTVSS | high polyreactivity |
| QVQLVESGGGLVQAGGSLRLSCAASGRPFDSNAMGWYRQGPGKERELVAAISYGCGTTHYADSVKGRFTISRDNAKNTVYLQMNSLKPEDTAVYYCAADPELQWESVTIGEYDYWGQGTQVTVSS | low polyreactivity |
| QVQLVESGGGLVQAGGSLRLSCAASGRIFWRNTMGWYRQAPGKERELVAAINYSGGRTYYADSVKGRFTISRDNAKNTVYLQMNSLKPEDTAVYYCAATPPVATNGRYYYWGQGTQVTVSS | low polyreactivity |
| QVQLVESGGGLVQAGGSLRLSCAASGFTFTYYAMGWYRQAPAKERELVAAISSSGGRTYYADSVKGRFTISRDNAKNTVYLQMNSLKPEDTAVYYCAARSVSATPDFHYWGQGTQVTVSS | high polyreactivity |
| QVQLVESGGGLVQAGGSLRLSCAASGSTFVSNAMGWSRQAPGKERELVAAITRRGGSTYYADSVKGRFTISRDNAKNTVYLQMNSLKPEDTAVYYCAAYSTLTPAYEYWGQGTQVTVSS | high polyreactivity |
| QVQLVESGGGLVQAGGSLRLSCAASGITFSEYAMGWYRQAPGKERELVAAITSGGNTYYADSVKGRFTISRDNAKNTVYLQMNSLKPEDTAVYYCAATFSSAFAYYYWGQGTQVTVSS | low polyreactivity |
| QGQLVESGGGLVQAGGSLRLSCDASGSTFFENTMGWYRQAHGQERELVAAITSGGGRPYYADSVKGRFTISRDNAKNTVYLQLNSLKPEETAVYYCAARARYTRRGRHYDYWGQGTQVTVSS | high polyreactivity |
| QVQLVESGGGLVQAGGSLRLSCAASGSIFPVYTMGWYRQAPGKEREFVATITISGAITYYADSVKGRFTISRDNAKNTVYLQMTSLKPEDTAVYYCNTGPMYFPANDYWGQGTQVTVSS | low polyreactivity |
| QVQLVESGGGLVQAGGSLRLSCAASGIIFRYNTMGWYRQEPGKERELVAAISWSGDSTYYADSVKGRFTISRDNAKNTVYLQMNSLKPEDTAVYYCARSQFSRSPSRMGYWGEGTQVTVSS | high polyreactivity |
| QVQLVESGGGLVQAGGSLRLSCAASGINFQRNDMGWYRQAPGKERELVANIRDGGITYADSVKGRFTISRDNAKNTVYLQMNSLKPEDTAVYYCARDDTSPGYGDQSSNAAYYYWGQGTQVTVSS | low polyreactivity |
| QDQLVESGGGLVQAGGSLRLSCAASGGTFTVYAMGWYRQAPGKERELVATINWSRGSTYYADSVKGRFTISRDNAKNTVYLQMKSLKPEDNAVYYCNAAWQYKSVEYWGQGTQVTVSS | low polyreactivity |
